Measurements published in FireProtDB (doi:10.1002/prot.340080106).

Conditions: Bos taurus; pH 7; 25 °C; Urea; CD; PIPES-KOH 20 mM; reversible: yes; whole UniProt chain shown

B1: Protein S100-G wild type, P02633 (protein)
chain: MSAKKSPEELKGIFEKYAAKEGDPNQLSKEELKLLLQTEFPSLLKGPSTLDELFEELDKNGDGEVSFEEFQVLVKKISQ
denaturant midpoint (higher = more stable): 5.3 M | unfolding free energy: 0.29 kcal/mol
